According to US20240269203A1 (Janssen / Centocor, published 2024):

B1: mαCTLA-4 (mouse surrogate anti-CTLA-4 antagonist payload; anti-CTLA-4 VHH fused to the heavy chain of mouse IgG2a Fc), expressed from mJP-OV-2 (Fc fusion)
chain: QVQLVESGGGLAQPGGSLRLSCAASGSTISSVAVGWYRQTPGNQREWVATSSTSSTTATYADSVKGRFTISRDNAKNTIYLQMNSLKPEDTAVYYCKTGLTNWGRGTQVTVSSEPRGPTIKPCPPCKCPAPNLLGGPSVFIFPPKIKDVLMISLSPIVTCVVVDVSEDDPDVQISWFVNNVEVHTAQTQTHREDYNSTLRVVSALPIQHQDWMSGKEFKCKVNNKDLPAPIERTISKPKGSVRAPQVYVLPPPEEEMTKKQVTLTCMVTDFMPEDIYVEWTNNGKTELNYKNTEPVLDSDGSYFMYSKLRVEKKNWVERNSYSCSVVHEGLHNHHTTKSFSRTPGK
notes: also called Mouse CTLA-4 antagonist payload; OVTSB24

Key:
[1] = molecular target: human CD40 receptor, stably expressed on HEK293 (HEK-Blue) reporter cells (human) (UniProt P25942)
mouse CTLA-4 = molecular target: T1, mouse CTLA-4 (mouse, UniProt P09793 36-161); assay: ELISA on immobilized mCTLA-4; supernatant of Vero cells infected with mJP-OV-2 (FIG. 33)
T1 construct: also called mCTLA-4

Molecule	EC50 (read off the curve), CD40 reporter cells, OD 650 nM [1] [ng/mL]	binding result (mouse CTLA-4)
hCD40ag (human CD40 agonist payload; Fc-less trimer of single-chain CD40L ectodomain trimer bundles with T4 fibritin trimerization motif), purified (ligand)	3	
B1		binds
